# Data taken from patent publication US10888549B2, “Pharmaceutical agents targeting cancer stem cells” (THE JOHNS HOPKINS UNIVERSITY, priority 2016, dated 2021).
# Key:
# SOX2 = SOX2 expression by western blotting / flow cytometry; assay type: cell-based, human; conditions: basal-type cells
# Protocol: Whole cell lysates were extracted using RIPA buffer (Thermo Scientific) supplemented with 10 μL/mL Halt™ Protease Inhibitor Cocktail Kit (Life Technologies) and 30 μL/mL Halt™ Phosphatase Inhibitor Cocktail Kit (Life Technologies). The protein concentrations were determined using a Pierce™ BCA Protein Assay Kit (Life Technologies), and the protein were separated on NuPAGE® 4-12% Bis-Tris Gel (Life Technologies) according to the manufacturer's protocol. […]
# For extracellular staining, cells (1×10^6/100 μL stain buffer) were incubated with PE-Vio770-conjugated anti-human CD133 (293C3; Miltenyi Biotec, Auburn, USA) or PE-conjugated anti-human CD24 antibody (cat #, 560991; BD Biosciences) for 30 min at 4° C. in dark. […] Data were acquired on a BD FACSCalibur flow cytometer (BD Biosciences) using BD CellQuest Pro software (BD Biosciences) and analyzed with FlowJo software v10.1 (Tree Star, Ashland, USA).
# YAP1 = YAP1 expression by western blotting; assay type: cell-based, human; conditions: basal-type cells
# Protocol: Whole cell lysates were extracted using RIPA buffer (Thermo Scientific) supplemented with 10 μL/mL Halt™ Protease Inhibitor Cocktail Kit (Life Technologies) and 30 μL/mL Halt™ Phosphatase Inhibitor Cocktail Kit (Life Technologies). The protein concentrations were determined using a Pierce™ BCA Protein Assay Kit (Life Technologies), and the protein were separated on NuPAGE® 4-12% Bis-Tris Gel (Life Technologies) according to the manufacturer's protocol. COX2 (D5H5), NANOG (D73G4), OCT4 (D7O5Z), CD133 (A3G6K), Snail (C15D3), ZEB1 (D80D3), Vimentin (D21H3), CDH2 (D4R1H), CDH1 (24E10), p-EGFR (D7A5), EGFR (D38B1), p-AKT (D9E), AKT (cat #, 9272), p-ERK (D13.14.4E), ERK (137F5), p-YAP1 (D9W2I), p-Src (cat #, 2101), Src (36D10), DNMT1 (D63A6), DNMT3A (D23G1), and DNMT3B (D7O7O) antibodies were obtained from Cell Signaling Technology (Danvers, Mass., USA), except for SOX2 (EPR3131; Abcam, Cambridge, USA), YAP1 (ab52771; Abcam), CD24 (cat #, AF5247-SP; R&D Systems, Minneapolis USA) and β-actin (A2228; Sigma-Aldrich). Secondary horseradish peroxidase (HRP)-conjugated antibodies were obtained from Cell Signaling Technology, and chemiluminescent detection of HRP-labeled antibodies was performed using Amersham ECL Prime Western Blotting Detection Reagent (GE Healthcare, Piscataway, USA). As loading control, β-actin was used.
molecule,measurement,setting,value
"EGF: Recombinant human epidermal growth factor (EGF) (protein, UniProt P01133 23-1207, looked up, Pro-epidermal growth factor) Pro-epidermal growth factor: PQHWSCPEGTLAGNGNSTCVGPAPFLIFSHGNSIFRIDTEGTNYEQLVVDAGVSVIMDFHYNEKRIYWVDLERQLLQRVFLNGSRQERVCNIEKNVSGMAINWINEEVIWSNQQEGIITVTDMKGNNSHILLSALKYPANVAVDPVERFIFWSSEVAGSLYRADLDGVGVKALLETSEKITAVSLDVLDKRLFWIQYNREGSNSLICSCDYDGGSVHISKHPTQHNLFAMSLFGDRIFYSTWKMKTIWIANKHTGKDMVRINLHSSFVPLGELKVVHPLAQPKAEDDTWEPEQKLCKLRKGNCSSTVCGQDLQSHLCMCAEGYALSRDRKYCEDVNECAFWNHGCTLGCKNTPGSYYCTCPVGFVLLPDGKRCHQLVSCPRNVSECSHDCVLTSEGPLCFCPEGSVLERDGKTCSGCSSPDNGGCSQLCVPLSPVSWECDCFPGYDLQLDEKSCAASGPQPFLLFANSQDIRHMHFDGTDYGTLLSQQMGMVYALDHDPVENKIYFAHTALKWIERANMDGSQRERLIEEGVDVPEGLAVDWIGRRFYWTDRGKSLIGRSDLNGKRSKIITKENISQPRGIAVHPMAKRLFWTDTGINPRIESSSLQGLGRLVIASSDLIWPSGITIDFLTDKLYWCDAKQSVIEMANLDGSKRRRLTQNDVGHPFAVAVFEDYVWFSDWAMPSVMRVNKRTGKDRVRLQGSMLKPSSLVVVHPLAKPGADPCLYQNGGCEHICKKRLGTAWCSCREGFMKASDGKTCLALDGHQLLAGGEVDLKNQVTPLDILSKTRVSEDNITESQHMLVAEIMVSDQDDCAPVGCSMYARCISEGEDATCQCLKGFAGDGKLCSDIDECEMGVPVCPPASSKCINTEGGYVCRCSEGYQGDGIHCLDIDECQLGEHSCGENASCTNTEGGYTCMCAGRLSEPGLICPDSTPPPHLREDDHHYSVRNSDSECPLSHDGYCLHDGVCMYIEALDKYACNCVVGYIGERCQYRDLKWWELRHAGHGQQQKVIVVAVCVVVLVMLLLLSLWGAHYYRTQKLLSKNPKNPYEESSRDVRSRRPADTEDGMSSCPQPWFVVIKEHQDLKNGGQPVAGEDGQAADGSMQPTSWRQEPQLCGMGTEQGCWIPVSSDKGSCPQVMERSFHMPSYGTQTLEGGVEKPHSLLSANPLWQQRALDPPHQMELTQ",SOX2 expression,SOX2,increased
same,YAP1 expression,YAP1,increased
